Starred links: 1 amine or outer side, 2 acyl side, 3 side chain; linkers in the order of their positions; H or OH if unused. Positions of bridges follow the written chain, without caps; N, C: chain ends. Non-standard residues stand in square brackets, D forms with d. Primed or numbered codes have the meaning given here. *: point of attachment. PyrS2″ = (S)-3-amino-1-((pent-4-en-1-yloxy)carbonyl)pyrrolidine-3-carboxylic acid (stapling residue), C=CCCCOC(=O)N1CC[C@@](N[*:1])(C(=O)[*:2])C1; RdN″ = (R)-4-(((allyloxy)carbonyl)(methyl)amino)-2-amino-2-methylbutanoic acid (stapling residue), C=CCOC(=O)N(C)CC[C@@](C)(N[*:1])C(=O)[*:2]; B5(4) = 2,2-bis(4-pentenyl)glycine = 2-amino-2-(pent-4-en-1-yl)hept-6-enoic acid (stitching residue), C=CCCCC(CCCC=C)(N[*:1])C(=O)[*:2]; PyrS(3) = (S)-1-((allyloxy)carbonyl)-3-aminopyrrolidine-3-carboxylic acid, stapling residue, C=CCOC(=O)N1CC[C@@](N[*:1])(C(=O)[*:2])C1; PyrS″ = (S)-1-((allyloxy)carbonyl)-3-aminopyrrolidine-3-carboxylic acid (stapling residue), C=CCOC(=O)N1CC[C@@](N[*:1])(C(=O)[*:2])C1; RdN = (R)-4-(((allyloxy)carbonyl)(methyl)amino)-2-amino-2-methylbutanoic acid, C=CCOC(=O)N(C)CC[C@@](C)(N[*:1])C(=O)[*:2]; PyrS = (S)-1-((allyloxy)carbonyl)-3-aminopyrrolidine-3-carboxylic acid, C=CCOC(=O)N1CC[C@@](N[*:1])(C(=O)[*:2])C1; B5(3) = 2,2-bis(4-pentenyl)glycine (stitching residue), C=CCCCC(CCCC=C)(N[*:1])C(=O)[*:2]; Phe(4-COOH) = N[C@@H](Cc1ccc(C(=O)O)cc1)C(=O)O; S7 = C[C@@](CCCCCC=[*:3])(N[*:1])C(=O)[*:2]; Bip = N[C@@H](Cc1ccc(-c2ccccc2)cc1)C(=O)O; Phe(2-Cl) = N[C@@H](Cc1ccccc1Cl)C(=O)O; Bta = N[C@@H](Cc1csc2ccccc12)C(=O)O; αAllylPro = C=CC[C@@]1(C(=O)O)CCCN1; tBuAla = CC(C)(C)C[C@H](N)C(=O)O; 3Pal = N[C@@H](Cc1cccnc1)C(=O)O; R8 = C=CCCCCCC[C@@](C)(N)C(=O)O; Thr(ol) = C[C@@H](O)[C@H](N)CO; Leu(ol) = CC(C)C[C@H](N)CO; Nle = CCCC[C@H](N)C(=O)O; Alaol = C[C@@H](CO)N*
T1: beta-catenin (Homo sapiens (Human), UniProt P35222 2-781)
T1 sequence: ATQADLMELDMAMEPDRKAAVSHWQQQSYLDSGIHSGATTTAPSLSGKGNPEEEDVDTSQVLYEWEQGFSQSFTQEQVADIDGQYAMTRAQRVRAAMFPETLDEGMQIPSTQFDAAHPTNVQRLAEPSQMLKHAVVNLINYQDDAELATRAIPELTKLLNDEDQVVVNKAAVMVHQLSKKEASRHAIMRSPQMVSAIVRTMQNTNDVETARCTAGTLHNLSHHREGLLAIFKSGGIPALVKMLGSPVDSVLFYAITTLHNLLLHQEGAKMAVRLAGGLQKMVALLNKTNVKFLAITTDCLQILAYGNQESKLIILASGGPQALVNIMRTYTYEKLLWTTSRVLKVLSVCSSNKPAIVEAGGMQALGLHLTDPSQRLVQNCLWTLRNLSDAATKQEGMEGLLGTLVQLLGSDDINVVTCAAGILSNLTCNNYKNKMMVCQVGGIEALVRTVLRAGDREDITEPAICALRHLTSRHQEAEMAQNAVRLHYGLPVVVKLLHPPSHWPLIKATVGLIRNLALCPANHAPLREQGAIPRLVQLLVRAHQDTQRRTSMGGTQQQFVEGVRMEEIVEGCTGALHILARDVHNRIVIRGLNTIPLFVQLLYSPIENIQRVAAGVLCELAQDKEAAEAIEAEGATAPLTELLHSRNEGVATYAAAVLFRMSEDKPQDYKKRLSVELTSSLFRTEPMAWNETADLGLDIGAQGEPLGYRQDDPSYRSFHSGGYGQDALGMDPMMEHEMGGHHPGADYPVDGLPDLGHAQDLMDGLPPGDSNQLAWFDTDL

T2: full-length beta-Catenin (Uniprot ID P35222) (Homo sapiens (Human), UniProt P35222 2-781)
T2 construct: The assay text says 'full-length'; also called B-Catenin; bCat
T2 sequence: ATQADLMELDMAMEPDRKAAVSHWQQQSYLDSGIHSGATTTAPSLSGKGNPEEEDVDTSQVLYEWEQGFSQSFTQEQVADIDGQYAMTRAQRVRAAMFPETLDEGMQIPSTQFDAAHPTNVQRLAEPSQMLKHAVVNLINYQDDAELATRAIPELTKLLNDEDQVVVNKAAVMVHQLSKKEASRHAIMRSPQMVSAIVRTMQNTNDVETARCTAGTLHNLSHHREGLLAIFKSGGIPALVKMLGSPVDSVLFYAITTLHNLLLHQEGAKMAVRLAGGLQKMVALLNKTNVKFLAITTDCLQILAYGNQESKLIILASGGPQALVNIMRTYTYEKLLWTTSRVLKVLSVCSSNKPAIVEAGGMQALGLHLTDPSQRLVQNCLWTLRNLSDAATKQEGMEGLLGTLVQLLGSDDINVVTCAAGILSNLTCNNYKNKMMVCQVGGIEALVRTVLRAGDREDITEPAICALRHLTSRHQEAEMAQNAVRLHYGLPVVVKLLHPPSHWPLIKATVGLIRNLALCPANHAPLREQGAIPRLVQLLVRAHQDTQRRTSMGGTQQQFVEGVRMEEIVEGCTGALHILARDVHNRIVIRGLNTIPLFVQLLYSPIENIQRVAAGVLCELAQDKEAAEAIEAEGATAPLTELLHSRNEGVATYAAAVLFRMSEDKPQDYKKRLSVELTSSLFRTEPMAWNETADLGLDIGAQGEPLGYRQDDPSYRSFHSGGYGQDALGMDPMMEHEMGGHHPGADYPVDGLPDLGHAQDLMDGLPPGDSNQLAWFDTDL


target: T1, beta-catenin; experiment: cell-based or functional assay

Binder | DLD1 TCF c2 BrightGlo % Inhibition (TCF/LEF luciferase reporter; 0.625 uM by plate map, replicate 1) | DLD1 TCF c2 BrightGlo % Inhibition (TCF/LEF luciferase reporter; 0.625 uM by plate map, replicate 2) | DLD1 TCF c2 BrightGlo % Inhibition (TCF/LEF luciferase reporter; 0.625 uM by plate map, replicate 3) | DLD1 TCF c2 BrightGlo % Inhibition (TCF/LEF luciferase reporter; 1.25 uM by plate map, replicate 1) | DLD1 TCF c2 BrightGlo % Inhibition (TCF/LEF luciferase reporter; 1.25 uM by plate map, replicate 2) | DLD1 TCF c2 BrightGlo % Inhibition (TCF/LEF luciferase reporter; 1.25 uM by plate map, replicate 3) | DLD1 TCF c2 BrightGlo % Inhibition (TCF/LEF luciferase reporter; 2.5 uM by plate map, replicate 1) | DLD1 TCF c2 BrightGlo % Inhibition (TCF/LEF luciferase reporter; 2.5 uM by plate map, replicate 2) | DLD1 TCF c2 BrightGlo % Inhibition (TCF/LEF luciferase reporter; 2.5 uM by plate map, replicate 3) | DLD1 TCF c2 BrightGlo % Inhibition (TCF/LEF luciferase reporter; 5 uM by plate map, replicate 1)
Ac-[αAllylPro]D[tBuAla][B5(4)]DDAAFN[PyrS2″][Phe(2-Cl)][Bta][Leu(ol)] (staple 1-4, 4-11) [I-1080] | 20.2% | 13.7% | 15.3% | 16% | 13.8% | 12.3% | 14.6% | 19.8% | 7.9% | 24.9%
Ac-[αAllylPro]D[tBuAla][B5(3)]DDAAFN[PyrS2″][Phe(2-Cl)][Bta][Thr(ol)] (staple 1-4, 4-11) [I-1082] | 14.1% | 17.4% | 20.3% | 14% | 21.5% | 24% | 17.3% | 36.1% | 37.9% | 38.5%
Ac-[αAllylPro]D[tBuAla][B5(3)]DDAAFN[PyrS2″][Phe(2-Cl)][Bta]-Alaol (staple 1-4, 4-11) [I-1081] | 9.2% | 7.1% | 11.5% | 0.8% | 2.4% | 5.4% | 4.5% | 7.9% | 15.2% | 17.5%

same assay, conditions: not given

Binder | DLD1 TCF c2 BrightGlo % Inhibition (TCF/LEF luciferase reporter; 5 uM by plate map, replicate 2) | DLD1 TCF c2 BrightGlo % Inhibition (TCF/LEF luciferase reporter; 5 uM by plate map, replicate 3) | DLD1 TCF c2 BrightGlo % Inhibition (TCF/LEF luciferase reporter; 10 uM by plate map, replicate 1) | DLD1 TCF c2 BrightGlo % Inhibition (TCF/LEF luciferase reporter; 10 uM by plate map, replicate 2) | DLD1 TCF c2 BrightGlo % Inhibition (TCF/LEF luciferase reporter; 10 uM by plate map, replicate 3) | DLD1 TCF c2 BrightGlo % Inhibition (TCF/LEF luciferase reporter; 20 uM by plate map, replicate 1) | DLD1 TCF c2 BrightGlo % Inhibition (TCF/LEF luciferase reporter; 20 uM by plate map, replicate 2) | DLD1 TCF c2 BrightGlo % Inhibition (TCF/LEF luciferase reporter; 20 uM by plate map, replicate 3)
Ac-[αAllylPro]D[tBuAla][B5(4)]DDAAFN[PyrS2″][Phe(2-Cl)][Bta][Leu(ol)] (staple 1-4, 4-11) [I-1080] | 31% | 24.4% | 42.4% | 42.2% | 38.1% | 51.4% | 56.9% | 51.8%
Ac-[αAllylPro]D[tBuAla][B5(3)]DDAAFN[PyrS2″][Phe(2-Cl)][Bta][Thr(ol)] (staple 1-4, 4-11) [I-1082] | 56.2% | 62% | 63.9% | 71% | 75% | 76.5% | 77.1% | 79.9%
Ac-[αAllylPro]D[tBuAla][B5(3)]DDAAFN[PyrS2″][Phe(2-Cl)][Bta]-Alaol (staple 1-4, 4-11) [I-1081] | 23.8% | 31% | 45.6% | 49.8% | 55.3% | 67.2% | 69.3% | 72.3%

target: T2, full-length beta-Catenin (Uniprot ID …); experiment: AlphaScreen competition vs biotin-TCF4(10-53) on full-length beta-catenin
Protocol: Equal volume of the titrated peptide was added to the plate and incubated for 15 minutes at 20° C. Then 4 uL of donor and 4 uL acceptor beads at 10 ug/mL were added to the plate, for a 16 uL reaction pool and protected from light for 60 minutes at 20° C. prior to read. Reads were performed on a CLARIOstar plate reader (BMG Labtech) in duplicate, and data were fitted to a 1:1 binding model with hill slope using an in-house script. All provided concentrations are final concentrations.

Binder | EC50
Ac-FDA[R8]D[3Pal]AAFV[PyrS″]FWQ-NH2 (staple 4-11, Stapled peptide composition) [I-10] | ≥ 10 µM
Ac-FDA[R8]D[Bip]AAFV[PyrS(3)]FWQ-NH2 (staple 4-11, Stapled peptide composition) [I-12] | ≥ 10 µM
Ac-FDA[RdN]DDAAFV[S7]FWQ-NH2 (staple 4-11; also: later-eluting isomer of same sequence as I-1, Stapled peptide composition) [I-2] | ≥ 10 µM
Ac-FDA[R8]D[Phe(4-COOH)]AAFV[PyrS″]FWQ-NH2 (staple 4-11, Stapled peptide composition) [I-7] | ≥ 10 µM
Ac-FDA[R8]D[3Pal]AAFV[PyrS″]FWQ-NH2 (staple 4-11, Stapled peptide composition) [I-9] | ≥ 10 µM
Ac-FDA[R8]D[Nle]AAFV[PyrS]FWQ-NH2 (staple 4-11, Stapled peptide composition) [I-13] | ≥ 10 µM
Ac-FDA[RdN″]DDAAFV[S7]FWQ-NH2 (staple 4-11, Stapled peptide composition) [I-1] | ≥ 10 µM

— patent US20240116985A1 (published 2024)
